Assay results published in patent publication EP0866131A2.

Target: human Fas antigen on HPB-ALL cells (human) (UniProt P25445)
Experiment: cell-based or functional assay

Chain of UniProt P25445 (P25445 26-335): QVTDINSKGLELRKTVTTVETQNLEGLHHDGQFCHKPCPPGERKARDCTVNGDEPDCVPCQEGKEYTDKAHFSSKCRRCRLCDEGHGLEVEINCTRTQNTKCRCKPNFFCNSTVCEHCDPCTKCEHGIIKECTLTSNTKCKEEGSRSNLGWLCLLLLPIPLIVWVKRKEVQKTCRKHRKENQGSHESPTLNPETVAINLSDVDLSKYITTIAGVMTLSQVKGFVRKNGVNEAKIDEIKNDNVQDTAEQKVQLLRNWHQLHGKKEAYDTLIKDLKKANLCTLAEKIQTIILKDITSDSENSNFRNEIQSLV

## mouse anti-human Fas monoclonal antibody CH11
  ED50 (ng/ml), cytotoxic activity on HPB-ALL cells: 10.7 ng/mL
